# Experimental data as given in patent US20100310509A1 (published 2010).
# T1: soluble gp130 (R&D Systems # 228-GP-050/CF) (UniProt P40189 23-619, limits assumed)
# T1 construct: extracellular domain; Bought
# T1 sequence (looked up): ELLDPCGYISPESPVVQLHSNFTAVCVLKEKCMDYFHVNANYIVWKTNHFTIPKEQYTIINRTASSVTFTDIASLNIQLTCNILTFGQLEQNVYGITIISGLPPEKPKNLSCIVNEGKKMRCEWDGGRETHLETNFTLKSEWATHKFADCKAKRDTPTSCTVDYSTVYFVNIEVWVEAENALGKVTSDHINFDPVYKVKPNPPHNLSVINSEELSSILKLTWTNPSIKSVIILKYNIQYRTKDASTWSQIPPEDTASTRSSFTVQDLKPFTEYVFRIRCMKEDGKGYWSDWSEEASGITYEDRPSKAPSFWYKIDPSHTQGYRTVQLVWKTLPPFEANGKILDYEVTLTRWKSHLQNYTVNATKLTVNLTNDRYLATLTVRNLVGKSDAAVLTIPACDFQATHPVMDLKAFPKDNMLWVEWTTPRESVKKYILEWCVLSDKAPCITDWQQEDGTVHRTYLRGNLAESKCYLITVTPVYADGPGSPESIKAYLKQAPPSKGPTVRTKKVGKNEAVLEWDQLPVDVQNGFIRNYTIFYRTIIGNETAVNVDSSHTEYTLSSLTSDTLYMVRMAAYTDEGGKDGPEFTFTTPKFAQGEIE
# T2: soluble human OSMR (Oncostatin M receptor) (human, UniProt Q99650 28-740)
# T2 construct: extracellular domain; Bought; also called soluble OSMR
# T2 sequence (looked up): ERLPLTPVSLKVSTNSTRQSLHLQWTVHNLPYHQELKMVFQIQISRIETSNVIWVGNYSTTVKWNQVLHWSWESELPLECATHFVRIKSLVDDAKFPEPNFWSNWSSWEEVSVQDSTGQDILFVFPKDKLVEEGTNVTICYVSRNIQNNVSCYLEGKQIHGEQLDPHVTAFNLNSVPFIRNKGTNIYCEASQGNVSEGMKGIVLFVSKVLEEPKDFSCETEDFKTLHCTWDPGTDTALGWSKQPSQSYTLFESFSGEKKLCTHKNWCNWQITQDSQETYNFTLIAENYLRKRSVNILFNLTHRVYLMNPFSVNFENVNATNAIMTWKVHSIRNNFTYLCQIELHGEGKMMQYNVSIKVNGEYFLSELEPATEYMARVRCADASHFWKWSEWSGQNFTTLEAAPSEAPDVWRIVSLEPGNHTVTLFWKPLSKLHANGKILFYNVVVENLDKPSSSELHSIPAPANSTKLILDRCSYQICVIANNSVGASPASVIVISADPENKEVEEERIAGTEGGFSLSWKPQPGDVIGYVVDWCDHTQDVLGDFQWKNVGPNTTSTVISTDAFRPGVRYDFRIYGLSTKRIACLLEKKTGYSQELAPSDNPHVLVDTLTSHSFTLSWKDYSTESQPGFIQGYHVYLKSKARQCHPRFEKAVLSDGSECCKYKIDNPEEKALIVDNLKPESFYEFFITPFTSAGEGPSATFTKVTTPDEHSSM
# B1: human leukemia inhibitory factor (LIF) (ligand)
# chain: not shown
# notes: Purified recombinant protein; also called hLIF
# B2: OSM-WT ('AGA' modified human Oncostatin M, referred to as wild-type OSM) (ligand)
# chain: AAIGSCSKEYRVLLGQLQKQTDLMQDTSRLLDPYIRIQGLDVPKLREHCRERPGAFPSEETLRGLGRRGFLQTLNATLGCVLHRLADLEQRLPKAQDLERSGLNIEDLEKLQMARPNILGLRNNIYCMAQLLDNSDTAEPTKAGAGASQPPTPTPASDAFQRKLEGCRFLHGYHRFMHSVGRVFSKWGESPN
# notes: also called hOSM with AGA modification; not shown: N-terminal FLAG tag left after thrombin removal of GST
# B3: OSM-M2 (OSM with BC loop truncated from 12 to 4 amino acids) (ligand)
# chain: AAIGSCSKEYRVLLGQLQKQTDLMQDTSRLLDPYIRIQGLDVPKLREHCRERPGAFPSEETLRGLGRRGFLQTLNATLGCVLHRLADLEQRLGGGNIEDLEKLQMARPNILGLRNNIYCMAQLLDNSDTAEPTKAGAGASQPPTPTPASDAFQRKLEGCRFLHGYHRFMHSVGRVFSKWGESPN
# notes: Made from the 'AGA' modified OSM template; lacks the thrombin site; not shown: N-terminal FLAG tag left after thrombin removal of GST
# B4: OSM-M1 (OSM with BC loop truncated from 12 to 7 amino acids) (ligand)
# chain: AAIGSCSKEYRVLLGQLQKQTDLMQDTSRLLDPYIRIQGLDVPKLREHCRERPGAFPSEETLRGLGRRGFLQTLNATLGCVLHRLADLEQRLGAPSGLNIEDLEKLQMARPNILGLRNNIYCMAQLLDNSDTAEPTKAGAGASQPPTPTPASDAFQRKLEGCRFLHGYHRFMHSVGRVFSKWGESPN
# notes: as for B3
# Assays:
# [1] = molecular target: T1, soluble gp130 (R&D Systems # …); assay: SPR (SensiQ), cytokine immobilised, soluble gp130 as analyte, 1:1 model
# Experimental: (§1) Surface Plasmon Resonance (SPR): Kinetic parameters of the interactions between receptor domains and the cytokines LIF, OSM-WT, OSM-M1 or OSM-M2 were analyzed by SPR using the SENSIQ® system (ICX Technologies, Oklahoma City, Okla.) as described by the manufacturer protocol. Briefly, a carboxyl sensor with two channels was installed in SENSIQ® and allowed to thermally equilibrate for about 15 minutes. The channels were initially cleaned with a 3 minute injection of 0.1 M HCl. An activation solution of 2 mM 1-Ethyl-3-[3-dimethylaminopropyl]carbodiimide hydrochloride (EDC) and 0.5 mM N-hydroxysulfo succinimide (NHS) was prepared in deionized water immediately before injection. Activation solution was injected over both channels for approximately 3 minutes followed by a 10 minute injection of 50 μg/mL cytokine (LIF, OSM-WT, OSM-M1 or OSM-M2) in 10 mM acetate buffer, pH 5.0, over channel 1. […] Unreacted NHS esters were capped with a 3 minute injection of 1 M ethanolamine, pH 8.0, over both channels. […] A concentration series of soluble LIFR (# 249-LR-050/CF, R&D Systems, Minneapolis, Minn.), soluble OSMR (# 4389-OR-50, R&D Systems, Minneapolis, Minn.) or soluble gp130 (# 228-GP-050/CF, R&D Systems, Minneapolis, Minn.) in running buffer (10 mM HEPES pH 7.4, 150 mM NaCl, 3.4 mM EDTA, 0.005% Tween-20) were injected over both channels at a flow rate of 25 μl/min. Following a dissociation period of 3 minutes, the surfaces were regenerated by injecting 10 mM NaOH for 30 seconds. Rate constants for association (kₐ) and dissociation (kd) rates were derived by global analysis of the response curves fit to a 1:1 kinetic model (Equations 1 and 2) using QDat software (BioLogic Software, Ltd. Knoxville Tenn. and Nomadics, Inc. Stillwater, Okla.) using 1:1 stoichiometry.
# Reducing the size of the BC loop improves OSM's affinity towards LIFR and OSMR. […] To directly measure the binding kinetics of these ligand-receptor interactions, surface plasmon resonance (SPR) was used.
# [2] = molecular target: T2, soluble human OSMR (Oncostatin M …); assay: SPR (SensiQ), LIF immobilised, soluble OSMR injected (150nM, 100nM, 50nM, 25nM, 10nM, 5nM)
# Experimental: as §1, with “Following a dissociation period of 3 minutes, the surfaces were regenerated by injecting 10 mM NaOH for 30 seconds. Rate constants for association (kₐ) and dissociation (kd) rates were derived by global analysis of the response curves fit to a 1:1 kinetic model (Equations 1 and 2) using QDat software (BioLogic Software, Ltd. Knoxville Tenn. and Nomadics, Inc. Stillwater, Okla.) using 1:1 stoichiometry.” left out
# [3] = molecular target: LIFR:gp130 receptor complex on human retinal Müller cells (human, UniProt P42702 45-1097; P40189 23-918); assay: cell-based or functional assay
# [4] = molecular target: OSMR:gp130 receptor complex on A375 melanoma cells (UniProt Q99650 28-979; P40189 23-918, limits assumed); assay: cell-based or functional assay
# [5] = molecular target: T2, soluble human OSMR (Oncostatin M …); assay: SPR (SensiQ), OSM-M1 immobilised, soluble OSMR injected (150nM, 100nM, 50nM, 25nM, 10nM, 5nM)
# Experimental: as §1, with “Following a dissociation period of 3 minutes, the surfaces were regenerated by injecting 10 mM NaOH for 30 seconds. Rate constants for association (kₐ) and dissociation (kd) rates were derived by global analysis of the response curves fit to a 1:1 kinetic model (Equations 1 and 2) using QDat software (BioLogic Software, Ltd. Knoxville Tenn. and Nomadics, Inc. Stillwater, Okla.) using 1:1 stoichiometry.” left out
# LIFR:gp130 receptor complex on human retinal Müller cells, sequence (P42702 45-1097, one chain of several): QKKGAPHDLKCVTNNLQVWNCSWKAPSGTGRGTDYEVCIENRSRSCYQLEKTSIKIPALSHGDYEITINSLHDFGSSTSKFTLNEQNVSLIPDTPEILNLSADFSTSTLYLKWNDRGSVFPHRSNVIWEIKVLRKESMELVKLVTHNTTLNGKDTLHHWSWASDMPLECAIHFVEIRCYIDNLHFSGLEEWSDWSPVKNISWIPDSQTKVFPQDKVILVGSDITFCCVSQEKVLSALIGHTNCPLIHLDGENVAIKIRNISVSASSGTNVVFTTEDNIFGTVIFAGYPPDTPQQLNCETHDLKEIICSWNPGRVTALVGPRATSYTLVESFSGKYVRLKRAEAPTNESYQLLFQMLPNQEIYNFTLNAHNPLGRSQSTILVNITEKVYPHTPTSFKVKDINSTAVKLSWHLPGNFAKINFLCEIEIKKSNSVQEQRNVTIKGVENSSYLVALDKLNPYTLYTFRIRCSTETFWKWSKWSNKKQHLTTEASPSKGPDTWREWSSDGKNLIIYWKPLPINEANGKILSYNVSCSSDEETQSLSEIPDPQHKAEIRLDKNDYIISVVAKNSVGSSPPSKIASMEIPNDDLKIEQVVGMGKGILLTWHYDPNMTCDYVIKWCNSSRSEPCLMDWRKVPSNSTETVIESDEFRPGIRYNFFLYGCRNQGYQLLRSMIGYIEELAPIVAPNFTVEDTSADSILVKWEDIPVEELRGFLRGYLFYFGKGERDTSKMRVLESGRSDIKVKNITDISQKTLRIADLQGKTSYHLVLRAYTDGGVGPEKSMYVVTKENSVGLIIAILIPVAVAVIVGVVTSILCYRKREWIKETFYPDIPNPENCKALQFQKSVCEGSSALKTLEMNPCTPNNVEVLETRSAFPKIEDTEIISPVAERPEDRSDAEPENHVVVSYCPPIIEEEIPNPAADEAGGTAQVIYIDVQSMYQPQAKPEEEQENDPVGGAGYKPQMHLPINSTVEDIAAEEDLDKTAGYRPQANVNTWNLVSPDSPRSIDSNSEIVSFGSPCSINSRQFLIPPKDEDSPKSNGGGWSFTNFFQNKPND
Binder,Kd [1] [nM],koff [1] [s⁻¹],kon [1] [M⁻¹ s⁻¹],binding result [2],"concentration needed for receptor activation, against native OSM [3] [fold lower concentration]","concentration needed for receptor activation, against native OSM [4] [fold lower concentration]",binding result [5]
B1,72.4,0.00533,74000,no binding (tested: 150 nM),–,–,–
B2,22.7,0.0047,207000,–,–,–,–
B3,21.5,0.00487,227000,–,3,3,–
B4,26.3,0.00534,203000,–,3,3,no binding (tested: 150 nM)
